This note sets out measurements from PMC3722096, “Crystal Structure of the N-Acetyltransferase Domain of Human N-Acetyl-L-Glutamate Synthase in Complex with N-Acetyl-L-Glutamate Provides Insights into Its Catalytic and Regulatory Mechanisms” (PLoS ONE, 2013).

Data set [1] deals with NAT domain of mouse NAGS (mouse). The data set can be described thus: SEC; analytic gel filtration, Superdex 200 HR 10/30; 100 mM NaH2PO4 pH 7.4, 150 mM NaCl, 10% glycerol, 1 mM β-mercaptoethanol; weights from a standard curve. (In general: Size exclusion chromatography separates by hydrodynamic size, large species first.)
Data set [2] concerns the molecule itself. The data set can be described thus: cross-linking; dimethyl suberimidate (4.5 µg) or suberic acid bis(3-sulfo-N-hydroxysuccinimide ester) sodium salt (9.0 µg), 10 µl of 200 mM triethanolamine pH 8.25, three hours at 298 K; SDS-PAGE, Coomassie (mNAGS) or silver (hNAGS) stain.
Data set [3] concerns the molecule itself. Kind of data set: SEC; analytic gel filtration, Superdex 200 HR 10/30; 100 mM NaH2PO4 pH 7.4, 150 mM NaCl, 10% glycerol, 1 mM β-mercaptoethanol; weights from a standard curve.

The term stoichiometry N denotes a count of units in the complex or per binding partner. “NAT domain of mouse NAGS (domain or fragment)” returned a stoichiometry N in data set [1] of 2.

B1: complete mouse N-acetylglutamate synthase (enzyme, UniProt Q8R4H7 19-527, looked up)
chain: LRSPGGPGGSRRLSGSARRRGAKSASPGRRLSTARAHAEDAEGAKGRVQSPAVEEPSWTPLPTPLESPAPPAGRSLVQRDIQAFLNQCGASPGEARHWLTQFQTCYHSVDKPFAVMEVDEEVIRCPQAVSRLAFALAFLQRMDMKPLVVLGLPTPTAPSGCLSFWEAKAQLAQSCKVLVDELRHNAATAVPFFGGGSVLSAAEPAPHASYGGIVAVETDLLQWCLESNSIPILCPIGETAARRSVLLDSLEVTASLAKALQPTKIIFLNNSGGLRNNSQKILSNVNLPADLDLVTNAEWLSIKERQQIRLIVDVLSRLPHYSSAVITAASTLLTELFSNKGCGTLFKNAERMLRVRNLDSLDQGRLVNLVNASFGKKLREDYLESLRPRLHSIYVSEGYNAAAILTVEPVLGGTPYLDKFVVSSSRQGQGSGQMLWECLRRDLQTLFWRSRVTNPINPWYFKHSDGSFSNKQWIFFWFGLADIRDSYELVNHAKGLPDSFCKPASDPGS
notes: N-acetylglutamate synthase (NAGS, EC 2.3.1.1), mouse; the printed tetramer weight of 195.8 kDa gives 48.95 kDa a subunit; also called mNAGS; mouse NAGS
Regarding B1, the “stoichiometry N” value in data set [2] amounted to 4.

B2: complete human N-acetylglutamate synthase (enzyme, UniProt Q8N159 19-534, looked up)
chain: LRGRGGTGGARRLSCGARRRAARGTSPGRRLSTAWSQPQPPPEEYAGADDVSQSPVAEEPSWVPSPRPPVPHESPEPPSGRSLVQRDIQAFLNQCGASPGEARHWLTQFQTCHHSADKPFAVIEVDEEVLKCQQGVSSLAFALAFLQRMDMKPLVVLGLPAPTAPSGCLSFWEAKAQLAKSCKVLVDALRHNAAAAVPFFGGGSVLRAAEPAPHASYGGIVSVETDLLQWCLESGSIPILCPIGETAARRSVLLDSLEVTASLAKALRPTKIIFLNNTGGLRDSSHKVLSNVNLPADLDLVCNAEWVSTKERQQMRLIVDVLSRLPHHSSAVITAASTLLTELFSNKGSGTLFKNAERMLRVRSLDKLDQGRLVDLVNASFGKKLRDDYLASLRPRLHSIYVSEGYNAAAILTMEPVLGGTPYLDKFVVSSSRQGQGSGQMLWECLRRDLQTLFWRSRVTNPINPWYFKHSDGSFSNKQWIFFWFGLADIRDSYELVNHAKGLPDSFHKPASDPGS
notes: N-acetylglutamate synthase (NAGS, EC 2.3.1.1), human; the printed tetramer weight of 202.4 kDa gives 50.6 kDa a subunit; also called hNAGS; human NAGS
On to B2, for which the “stoichiometry N” value in data set [2] was 4.

B3: human NAGS N-acetyltransferase domain (residues 377-534), as used in gel filtration (domain or fragment, UniProt Q8N159 377-534, looked up)
chain: MLRVRSLDKLDQGRLVDLVNASFGKKLRDDYLASLRPRLHSIYVSEGYNAAAILTMEPVLGGTPYLDKFVVSSSRQGQGSGQMLWECLRRDLQTLFWRSRVTNPINPWYFKHSDGSFSNKQWIFFWFGLADIRDSYELVNHAKGLPDSFHKPASDPGS
notes: N-acetyltransferase (NAT) domain of human N-acetylglutamate synthase, residues 377-534; also called hNAT; hNAT domain
Take B3: the “stoichiometry N” value in data set [3] was 2.
